# Reference: patent US20110144312A1 (Kyowa Kirin, published 2011)
# Numbering of substitutions follows the chain as printed.
# T1: human IL-10Rα on cells (human, UniProt Q13651 22-578)
# T1 construct: Full-length entry with signal peptide; endogenous on PBMC and RPMI-8226 cells, transfected in EL-4 and CHO-K1 cells; also called IL-10R on RPMI-8226 cells; IL-10Rα on human PBMC, lymphocytes and monocytes
# T1 sequence: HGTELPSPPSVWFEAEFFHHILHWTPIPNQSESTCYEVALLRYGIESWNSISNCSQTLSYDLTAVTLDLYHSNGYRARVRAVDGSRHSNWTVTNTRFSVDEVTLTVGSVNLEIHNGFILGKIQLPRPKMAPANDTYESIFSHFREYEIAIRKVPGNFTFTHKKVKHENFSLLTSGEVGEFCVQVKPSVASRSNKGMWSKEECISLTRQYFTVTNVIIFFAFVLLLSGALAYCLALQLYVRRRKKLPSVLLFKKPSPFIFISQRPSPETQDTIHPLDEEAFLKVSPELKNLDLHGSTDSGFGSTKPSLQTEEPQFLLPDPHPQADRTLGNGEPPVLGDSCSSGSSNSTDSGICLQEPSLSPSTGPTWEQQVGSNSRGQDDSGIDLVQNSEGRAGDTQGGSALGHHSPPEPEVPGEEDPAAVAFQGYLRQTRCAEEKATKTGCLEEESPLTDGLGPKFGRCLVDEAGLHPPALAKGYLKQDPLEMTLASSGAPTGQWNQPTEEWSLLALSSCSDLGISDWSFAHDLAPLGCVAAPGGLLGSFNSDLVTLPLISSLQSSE
# T2: cynomolgus macaque IL-10Rα on PBMC (cynomolgus macaque, UniProt Q13651 22-578 (human entry))
# T2 construct: Full-length entry cloned from cynomolgus T cells; endogenous on primary PBMC in the assays; also called IL-10Rα on the surface of cynomolgus lymphocytes and monocytes
# T2 chain: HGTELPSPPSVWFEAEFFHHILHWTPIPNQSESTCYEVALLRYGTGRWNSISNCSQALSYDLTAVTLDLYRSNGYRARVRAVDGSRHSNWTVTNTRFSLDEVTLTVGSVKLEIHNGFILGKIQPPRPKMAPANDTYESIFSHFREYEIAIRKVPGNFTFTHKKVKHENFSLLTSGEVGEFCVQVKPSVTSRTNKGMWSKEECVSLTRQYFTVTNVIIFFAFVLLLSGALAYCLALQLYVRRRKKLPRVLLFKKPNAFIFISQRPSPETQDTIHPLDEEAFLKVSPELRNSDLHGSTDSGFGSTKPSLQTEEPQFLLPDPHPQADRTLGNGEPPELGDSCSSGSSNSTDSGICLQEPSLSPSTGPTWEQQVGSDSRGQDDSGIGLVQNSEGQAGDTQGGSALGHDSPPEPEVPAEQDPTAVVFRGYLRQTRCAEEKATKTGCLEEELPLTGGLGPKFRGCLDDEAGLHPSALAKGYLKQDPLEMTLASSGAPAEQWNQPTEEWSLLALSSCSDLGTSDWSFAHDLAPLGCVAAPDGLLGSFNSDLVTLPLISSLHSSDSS
# B1: 136C5 (antibody, V domains shown)
# VH: EVQLVESGGGLVQPGGSLRLSCAASGFTFSSYSMNWVRQAPGKGLEWVSYISTGSSTIYYADSVKGRFTISRDNAKNSLYLQMNSLRDEDTAVYYCARENYYGSGSYEDYFDYWGQGTLVTVSS
# VL: EIVLTQSPATLSLSPGERATLSCRASQSVSSYLAWYQQKPGQAPRLLIYDASNRATGIPARFSGSGSGTDFTLTISSLEPEDFAVYYCQQRSNWPIFTFGPGTKVDIK
# notes: Hybridoma antibody, human IgG1, kappa light chain; also called human anti-human IL-10Rα monoclonal antibody 136C5; hybridoma deposit PTA-9131
# B2: 136C8 (antibody, V domains shown)
# VH: B1 VH with G54R
# VL: B1 VL
# notes: Hybridoma antibody, human IgG2, kappa light chain; also called human anti-human IL-10Rα monoclonal antibody 136C8; hybridoma deposit PTA-9132
# How the values were obtained:
# human IL-10Rα on cells [1] = molecular target: T1, human IL-10Rα on cells; assay: flow cytometry, RPMI-8226 cells pre-incubated with biotinylated human IL-10 (competitor)
# Description: IL-10 Blocking Assay: To determine if the anti-human IL-10Rα antibodies were blocked by binding of IL-10 to the receptor on the cell surface, a flow cytometric protocol was used. In the flow cytometric assay, RPMI-8226 cells were washed and resuspended in staining buffer and then incubated with biotinylated human IL-10 or a negative control protein (R&D Systems) for 30 minutes on ice. The anti-IL-10Rα antibodies were then added to the cells for an additional 30 minutes. The cells were washed and incubated with anti-human IgG conjugated to PE (Southern Biotech Associates) for 30 minutes. After another wash, the cells were fixed with 1% paraformaldehyde and analyzed on a FACS Calibur. The fold reduction in antibody binding was determined using the geometric mean fluorescence intensity in the following formula: Fold reduction=geometric mean fluorescence intensity in the absence of IL-10/geometric mean fluorescence intensity binding in presence of IL-10.
# Recombinant IL-10 binding to the IL-10R expressed by RPMI-8226 cells reduced binding of the anti-human IL-10Rα antibodies (FIG. 3A). The reduction in antibody binding was similar for all antibodies tested. […] The fold reduction in binding by IL-10 (Table 3) was determined by dividing the geo mean of the antibody binding in the absence of IL-10 by the geo mean in the presence of IL-10. […]
# human IL-10Rα on cells [2] = molecular target: T1, human IL-10Rα on cells; assay: flow cytometry on RPMI-8226 cells; detection anti-human IgG-PE [B]
# Source text: A) Titration of anti-IL-10Rα antibodies binding to coated human IL-10Rα:hFc. Binding was detected with anti-human kappa-HRP, anti-mouse IgG-HRP, or anti-rat IgG-HRP. […] RPMI-8226 cells were labeled with anti-human IL-10Rα antibodies at various concentrations and detected with anti-human IgG-PE. The commercial rat anti-human IL-10Rα antibody 3F9 was detected with anti-rat IgG-PE. The geometric mean fluorescence intensity (geo mean) data are shown.
# The cells were washed once in staining buffer: PBS+2% FBS+0.01% NaN₃+10 mM EDTA, then blocked with 20 μg/ml rabbit IgG (Jackson Immunoresearch), resuspended in serum, supernatant, purified anti-human IL-10Rα antibodies, or isotype control antibodies in a final volume of 50 μl. The cells were incubated with the antibodies on ice for 20 minutes, washed twice in staining buffer then resuspended in an anti-human IgG secondary antibody for 20 minutes. […] If the biotinylated antibody was used, antibody binding was detected by labeling with streptavidin-phycoerythrin (SA-PE) for 20 minutes. Binding of rat and mouse anti-hIL-10Rα antibodies were detected with either biotinylated or PE conjugated anti-rat or anti-mouse IgG antibodies from multiple sources (Jackson Immunoresearch; Southern Biotech Associates; and BD Pharmingen, San Diego, Calif.). […]
# [3] = molecular target: T2, cynomolgus macaque IL-10Rα on PBMC; assay: flow cytometry on cynomolgus macaque PBMC, lymphocyte gate; competitor: recombinant human IL-10Rα [C]
# [4] = molecular target: T3, SNP variant R212E of human IL-10Rα extracellular domain fused to the Fc portion of human IgG1 (human); assay: ELISA, coated SNP variant Fc fusion R212E [E]
# T3 construct: The entry already holds the change and includes the signal peptide
# T3 sequence (chain, as listed by the source R212E R212E limits assumed): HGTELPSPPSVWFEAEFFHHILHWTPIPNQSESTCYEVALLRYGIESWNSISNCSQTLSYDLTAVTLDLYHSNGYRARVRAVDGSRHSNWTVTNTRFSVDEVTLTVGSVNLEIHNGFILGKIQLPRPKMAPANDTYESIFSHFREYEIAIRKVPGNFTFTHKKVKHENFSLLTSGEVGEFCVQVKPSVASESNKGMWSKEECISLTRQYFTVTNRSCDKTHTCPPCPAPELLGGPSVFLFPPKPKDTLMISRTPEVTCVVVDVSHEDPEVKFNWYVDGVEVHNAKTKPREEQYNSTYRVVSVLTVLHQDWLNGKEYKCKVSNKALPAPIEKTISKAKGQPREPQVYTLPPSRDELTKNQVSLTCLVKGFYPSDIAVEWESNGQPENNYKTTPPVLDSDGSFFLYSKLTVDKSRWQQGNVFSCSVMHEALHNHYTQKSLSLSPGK
Binder,Fold Reduction by IL-10 (human IL-10Rα on cells [1]) [fold],EC50 (read off the curve) (human IL-10Rα on cells [2]) [µg/mL],binding result [3],binding result [4]
B1,1.88,~0.5,binds,–
B2,1.98,~0.5,binds,binds
